Reference: article PMC10899256

Biological target: TBC1D23 co-precipitated with GFP-tagged LKB1 (Fig. 8a) (UniProt Q9NUY8)
Assay: co-immunoprecipitation (GFP beads) from HEK293T cells, densitometry
Details: parent: est. 1.0; read off a plot

Chain of TBC1D23 co-precipitated with GFP-tagged LKB1 (Fig. 8a) (Q9NUY8 whole entry): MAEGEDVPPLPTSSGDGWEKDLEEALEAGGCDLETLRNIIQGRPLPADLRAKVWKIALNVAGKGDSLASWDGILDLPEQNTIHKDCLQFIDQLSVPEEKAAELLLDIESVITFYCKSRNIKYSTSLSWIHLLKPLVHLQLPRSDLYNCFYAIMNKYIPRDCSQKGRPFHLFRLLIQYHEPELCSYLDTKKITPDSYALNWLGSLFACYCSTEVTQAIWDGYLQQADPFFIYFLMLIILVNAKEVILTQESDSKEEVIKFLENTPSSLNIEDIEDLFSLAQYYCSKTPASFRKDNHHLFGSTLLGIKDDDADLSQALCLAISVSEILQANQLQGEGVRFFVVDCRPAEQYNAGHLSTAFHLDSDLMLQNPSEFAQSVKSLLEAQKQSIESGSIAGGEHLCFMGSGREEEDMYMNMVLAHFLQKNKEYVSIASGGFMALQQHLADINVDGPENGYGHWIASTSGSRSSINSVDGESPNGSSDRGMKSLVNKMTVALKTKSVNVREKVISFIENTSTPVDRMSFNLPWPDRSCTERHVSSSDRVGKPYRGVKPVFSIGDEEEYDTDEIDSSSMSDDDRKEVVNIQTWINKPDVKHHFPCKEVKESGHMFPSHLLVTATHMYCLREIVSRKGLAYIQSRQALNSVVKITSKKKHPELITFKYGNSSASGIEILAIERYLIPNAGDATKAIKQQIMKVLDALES

ratio to parent | Substance
0.75 | GFP-LKB1 CRD F354A
0.82 | GFP-LKB1 CRD F354L
